± gives the uncertainty stated by the source.

A short description of the data set: abundance fitness (aPCA) (normalised: wild type 0, dead -1); higher = more abundant; growth selection in yeast, the domain comes from the species named. To be noted: Homo sapiens.
In turn, “Lipoamide acyltransferase component of branched-chain alpha-keto acid dehydrogenase complex, mitochondrial R199S, P11182” displayed an abundance fitness of -0.08 ± 0.048. With “Lipoamide acyltransferase component of branched-chain alpha-keto acid dehydrogenase complex, mitochondrial R199T, P11182” the figure was -0.006 ± 0.062; with “Lipoamide acyltransferase component of branched-chain alpha-keto acid dehydrogenase complex, mitochondrial R199V, P11182”, -0.129 ± 0.044; with “Lipoamide acyltransferase component of branched-chain alpha-keto acid dehydrogenase complex, mitochondrial R199W, P11182”, -0.117 ± 0.046. With “Lipoamide acyltransferase component of branched-chain alpha-keto acid dehydrogenase complex, mitochondrial S189A, P11182” the figure was -0.03 ± 0.04; with “Lipoamide acyltransferase component of branched-chain alpha-keto acid dehydrogenase complex, mitochondrial S189C, P11182”, -0.111 ± 0.071. The result for “Lipoamide acyltransferase component of branched-chain alpha-keto acid dehydrogenase complex, mitochondrial S189E, P11182” reads -0.001 ± 0.042; that for “Lipoamide acyltransferase component of branched-chain alpha-keto acid dehydrogenase complex, mitochondrial S189F, P11182”, -0.343 ± 0.058. On to “Lipoamide acyltransferase component of branched-chain alpha-keto acid dehydrogenase complex, mitochondrial S189G, P11182”, for which the abundance fitness was -0.065 ± 0.039. The substance “Lipoamide acyltransferase component of branched-chain alpha-keto acid dehydrogenase complex, mitochondrial S189K, P11182” displayed an abundance fitness of -0.135 ± 0.068. With “Lipoamide acyltransferase component of branched-chain alpha-keto acid dehydrogenase complex, mitochondrial S189L, P11182” the figure was -0.45 ± 0.046. “Lipoamide acyltransferase component of branched-chain alpha-keto acid dehydrogenase complex, mitochondrial S189M, P11182” gave an abundance fitness of -0.264 ± 0.061.

On to “Lipoamide acyltransferase component of branched-chain alpha-keto acid dehydrogenase complex, mitochondrial S189P, P11182”, for which the abundance fitness was -0.232 ± 0.068. In turn, “Lipoamide acyltransferase component of branched-chain alpha-keto acid dehydrogenase complex, mitochondrial S189Q, P11182” yielded an abundance fitness of -0.097 ± 0.054. The result for “Lipoamide acyltransferase component of branched-chain alpha-keto acid dehydrogenase complex, mitochondrial S189R, P11182” reads -0.09 ± 0.039; that for “Lipoamide acyltransferase component of branched-chain alpha-keto acid dehydrogenase complex, mitochondrial S189T, P11182”, -0.033 ± 0.046. “Lipoamide acyltransferase component of branched-chain alpha-keto acid dehydrogenase complex, mitochondrial S189V, P11182” returned an abundance fitness of -0.199 ± 0.043. “Lipoamide acyltransferase component of branched-chain alpha-keto acid dehydrogenase complex, mitochondrial S189Y, P11182” yielded an abundance fitness of -0.258 ± 0.19.

On to “Lipoamide acyltransferase component of branched-chain alpha-keto acid dehydrogenase complex, mitochondrial S194A, P11182”, for which the abundance fitness is -0.564 ± 0.073.

“Lipoamide acyltransferase component of branched-chain alpha-keto acid dehydrogenase complex, mitochondrial S194C, P11182” showed an abundance fitness of -0.47 ± 0.045. With “Lipoamide acyltransferase component of branched-chain alpha-keto acid dehydrogenase complex, mitochondrial S194E, P11182” the figure was -0.504 ± 0.049. The substance “Lipoamide acyltransferase component of branched-chain alpha-keto acid dehydrogenase complex, mitochondrial S194F, P11182” returned an abundance fitness of -0.917 ± 0.088. As to “Lipoamide acyltransferase component of branched-chain alpha-keto acid dehydrogenase complex, mitochondrial S194G, P11182”, the abundance fitness is -0.319 ± 0.052. The result for “Lipoamide acyltransferase component of branched-chain alpha-keto acid dehydrogenase complex, mitochondrial S194I, P11182” reads -0.738 ± 0.12; that for “Lipoamide acyltransferase component of branched-chain alpha-keto acid dehydrogenase complex, mitochondrial S194K, P11182”, -0.378 ± 0.057. The result for “Lipoamide acyltransferase component of branched-chain alpha-keto acid dehydrogenase complex, mitochondrial S194M, P11182” reads -0.628 ± 0.082; that for “Lipoamide acyltransferase component of branched-chain alpha-keto acid dehydrogenase complex, mitochondrial S194N, P11182”, -0.287 ± 0.049; that for “Lipoamide acyltransferase component of branched-chain alpha-keto acid dehydrogenase complex, mitochondrial S194P, P11182”, -0.694 ± 0.075. “Lipoamide acyltransferase component of branched-chain alpha-keto acid dehydrogenase complex, mitochondrial S194R, P11182” returned an abundance fitness of -0.314 ± 0.037. “Lipoamide acyltransferase component of branched-chain alpha-keto acid dehydrogenase complex, mitochondrial S194T, P11182”: the abundance fitness was -0.013 ± 0.06. “Lipoamide acyltransferase component of branched-chain alpha-keto acid dehydrogenase complex, mitochondrial S194V, P11182” displayed an abundance fitness of -0.864 ± 0.064.

Turning to “Lipoamide acyltransferase component of branched-chain alpha-keto acid dehydrogenase complex, mitochondrial S194W, P11182”, the abundance fitness was -0.937 ± 0.069. “Lipoamide acyltransferase component of branched-chain alpha-keto acid dehydrogenase complex, mitochondrial T171A, P11182” registered an abundance fitness of -0.215 ± 0.055.

As to “Lipoamide acyltransferase component of branched-chain alpha-keto acid dehydrogenase complex, mitochondrial T171C, P11182”, the abundance fitness was -0.282 ± 0.063.

The substance “Lipoamide acyltransferase component of branched-chain alpha-keto acid dehydrogenase complex, mitochondrial T171D, P11182” yielded an abundance fitness of -0.035 ± 0.073. With “Lipoamide acyltransferase component of branched-chain alpha-keto acid dehydrogenase complex, mitochondrial T171E, P11182” the figure was -0.268 ± 0.058; with “Lipoamide acyltransferase component of branched-chain alpha-keto acid dehydrogenase complex, mitochondrial T171F, P11182”, -0.028 ± 0.12; with “Lipoamide acyltransferase component of branched-chain alpha-keto acid dehydrogenase complex, mitochondrial T171K, P11182”, -0.061 ± 0.069. As for “Lipoamide acyltransferase component of branched-chain alpha-keto acid dehydrogenase complex, mitochondrial T171L, P11182”, the abundance fitness is -0.632 ± 0.17.

Turning to “Lipoamide acyltransferase component of branched-chain alpha-keto acid dehydrogenase complex, mitochondrial T171M, P11182”, the abundance fitness turned out to be 0.031 ± 0.062. With “Lipoamide acyltransferase component of branched-chain alpha-keto acid dehydrogenase complex, mitochondrial T171N, P11182” the figure was -0.012 ± 0.058; with “Lipoamide acyltransferase component of branched-chain alpha-keto acid dehydrogenase complex, mitochondrial T171P, P11182”, -0.422 ± 0.11; with “Lipoamide acyltransferase component of branched-chain alpha-keto acid dehydrogenase complex, mitochondrial T171Q, P11182”, -0.391 ± 0.09. With “Lipoamide acyltransferase component of branched-chain alpha-keto acid dehydrogenase complex, mitochondrial T171R, P11182” the figure was -0.578 ± 0.058; with “Lipoamide acyltransferase component of branched-chain alpha-keto acid dehydrogenase complex, mitochondrial T171S, P11182”, -0.267 ± 0.075.

“Lipoamide acyltransferase component of branched-chain alpha-keto acid dehydrogenase complex, mitochondrial T171V, P11182”: the abundance fitness was 0.019 ± 0.057.

The values above are taken from the Human Domainome abundance scans (Beltran et al. 2025).
